Key:
[1] = target: T1, Retriever complex (VPS35L, VPS26C, VPS29) (human, UniProt Q7Z3J2 1-963; O14972 1-297; Q9UBQ0-2 1-186); assay: pull-down
[2] = target: T1, Retriever complex (VPS35L, VPS26C, …); assay: pull-down; remark: listed apart in the source

T1 sequence (Q7Z3J2 whole entry, chain 1 of 2): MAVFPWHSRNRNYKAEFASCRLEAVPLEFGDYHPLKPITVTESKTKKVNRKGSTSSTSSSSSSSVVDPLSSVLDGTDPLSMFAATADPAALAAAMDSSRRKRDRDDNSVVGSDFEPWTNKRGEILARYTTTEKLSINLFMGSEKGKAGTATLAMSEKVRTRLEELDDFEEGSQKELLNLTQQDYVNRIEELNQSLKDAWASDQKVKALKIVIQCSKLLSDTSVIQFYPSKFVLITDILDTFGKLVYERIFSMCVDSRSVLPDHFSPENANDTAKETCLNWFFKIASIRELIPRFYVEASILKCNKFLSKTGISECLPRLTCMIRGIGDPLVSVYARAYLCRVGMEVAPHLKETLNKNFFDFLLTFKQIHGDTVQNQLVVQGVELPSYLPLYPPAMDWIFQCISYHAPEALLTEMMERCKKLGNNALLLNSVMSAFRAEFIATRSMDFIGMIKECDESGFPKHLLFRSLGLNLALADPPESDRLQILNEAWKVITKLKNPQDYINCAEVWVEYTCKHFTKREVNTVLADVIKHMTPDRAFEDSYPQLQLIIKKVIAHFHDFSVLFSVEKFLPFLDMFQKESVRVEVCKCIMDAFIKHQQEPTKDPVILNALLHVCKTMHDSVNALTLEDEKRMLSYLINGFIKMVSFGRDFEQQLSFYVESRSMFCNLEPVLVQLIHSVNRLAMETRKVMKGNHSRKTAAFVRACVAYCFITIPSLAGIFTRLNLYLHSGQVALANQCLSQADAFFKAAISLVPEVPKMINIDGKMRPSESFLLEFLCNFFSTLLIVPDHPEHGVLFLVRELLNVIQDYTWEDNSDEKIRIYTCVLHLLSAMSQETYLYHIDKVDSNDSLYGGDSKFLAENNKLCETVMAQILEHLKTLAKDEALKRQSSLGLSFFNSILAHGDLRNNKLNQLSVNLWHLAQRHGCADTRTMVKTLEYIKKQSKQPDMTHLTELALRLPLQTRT
T1 sequence (O14972 whole entry, chain 2 of 2): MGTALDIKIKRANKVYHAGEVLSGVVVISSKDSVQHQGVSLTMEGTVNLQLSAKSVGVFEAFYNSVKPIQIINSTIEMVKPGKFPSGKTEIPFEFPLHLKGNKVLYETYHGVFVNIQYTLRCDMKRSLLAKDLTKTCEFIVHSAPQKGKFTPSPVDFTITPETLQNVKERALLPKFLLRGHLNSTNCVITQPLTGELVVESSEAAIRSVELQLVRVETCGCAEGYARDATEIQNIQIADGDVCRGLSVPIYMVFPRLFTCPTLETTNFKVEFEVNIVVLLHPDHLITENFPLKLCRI

Kd [1] | binding result [2] | Binder
~110 nM | – | ASASDVHGNFAFEGIGDEDL [GST-SNX17 CT (GST-tagged tail peptide, last 20 residues of SNX17)]
– | binds | SVYLVNFRCCRSHDLCNEDL [GST-tagged CT acidic tail of PATE1 (last 20 amino acids)]
– | binds | SKIKIAKDDCVFGNIKEEDL [GST-tagged CT acidic tail of SNX31 (last 20 amino acids)]

Source: PMC10980035 (bioRxiv, 2024)
